T1: TNFR1 (Homo sapiens, UniProt P19438)
T1 chain: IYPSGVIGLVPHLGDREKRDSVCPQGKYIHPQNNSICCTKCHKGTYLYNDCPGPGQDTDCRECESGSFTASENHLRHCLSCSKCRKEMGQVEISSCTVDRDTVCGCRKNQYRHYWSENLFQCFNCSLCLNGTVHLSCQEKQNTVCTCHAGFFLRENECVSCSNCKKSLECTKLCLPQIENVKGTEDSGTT


Target: T1, TNFR1
Assay: yeast display SC50

apparent Kd (screen) [nM] | Binder
0.593 | R92V (designed binder) MTLQELLREEALRRAEAEAFRYALELLAEKFPEQKEYLLDLAEEIESQIRSLSGVDVEDVRKFLDKEWAWVKELLAEHPAELAEVEAARAAVLAELRAEVEAKVAA
0.539 | Q4D (designed binder) MTLDELLREEALRRAEAEAFRYALELLAEKFPEQKEYLLDLAEEIESQIRSLSGVDVEDVRKFLDKEWAWVKELLAEHPAELAEVEAARAARLAELRAEVEAKVAA
0.539 | Q34Y (designed binder) MTLQELLREEALRRAEAEAFRYALELLAEKFPEYKEYLLDLAEEIESQIRSLSGVDVEDVRKFLDKEWAWVKELLAEHPAELAEVEAARAARLAELRAEVEAKVAA
0.49 | A90E (designed binder) MTLQELLREEALRRAEAEAFRYALELLAEKFPEQKEYLLDLAEEIESQIRSLSGVDVEDVRKFLDKEWAWVKELLAEHPAELAEVEAAREARLAELRAEVEAKVAA
0.49 | W68Y (designed binder) MTLQELLREEALRRAEAEAFRYALELLAEKFPEQKEYLLDLAEEIESQIRSLSGVDVEDVRKFLDKEYAWVKELLAEHPAELAEVEAARAARLAELRAEVEAKVAA
12.5 | W68N (designed binder) MTLQELLREEALRRAEAEAFRYALELLAEKFPEQKEYLLDLAEEIESQIRSLSGVDVEDVRKFLDKENAWVKELLAEHPAELAEVEAARAARLAELRAEVEAKVAA
0.49 | M1M (designed binder) MTLQELLREEALRRAEAEAFRYALELLAEKFPEQKEYLLDLAEEIESQIRSLSGVDVEDVRKFLDKEWAWVKELLAEHPAELAEVEAARAARLAELRAEVEAKVAA
7.07 | F20P (designed binder) MTLQELLREEALRRAEAEAPRYALELLAEKFPEQKEYLLDLAEEIESQIRSLSGVDVEDVRKFLDKEWAWVKELLAEHPAELAEVEAARAARLAELRAEVEAKVAA
2.48 | L3K (designed binder) MTKQELLREEALRRAEAEAFRYALELLAEKFPEQKEYLLDLAEEIESQIRSLSGVDVEDVRKFLDKEWAWVKELLAEHPAELAEVEAARAARLAELRAEVEAKVAA
0.653 | A23I (designed binder) MTLQELLREEALRRAEAEAFRYILELLAEKFPEQKEYLLDLAEEIESQIRSLSGVDVEDVRKFLDKEWAWVKELLAEHPAELAEVEAARAARLAELRAEVEAKVAA
6.43 | E67S (designed binder) MTLQELLREEALRRAEAEAFRYALELLAEKFPEQKEYLLDLAEEIESQIRSLSGVDVEDVRKFLDKSWAWVKELLAEHPAELAEVEAARAARLAELRAEVEAKVAA
0.653 | L93C (designed binder) MTLQELLREEALRRAEAEAFRYALELLAEKFPEQKEYLLDLAEEIESQIRSLSGVDVEDVRKFLDKEWAWVKELLAEHPAELAEVEAARAARCAELRAEVEAKVAA
0.49 | Q4Y (designed binder) MTLYELLREEALRRAEAEAFRYALELLAEKFPEQKEYLLDLAEEIESQIRSLSGVDVEDVRKFLDKEWAWVKELLAEHPAELAEVEAARAARLAELRAEVEAKVAA
2.25 | L7V (designed binder) MTLQELVREEALRRAEAEAFRYALELLAEKFPEQKEYLLDLAEEIESQIRSLSGVDVEDVRKFLDKEWAWVKELLAEHPAELAEVEAARAARLAELRAEVEAKVAA
13.8 | E10Q (designed binder) MTLQELLREQALRRAEAEAFRYALELLAEKFPEQKEYLLDLAEEIESQIRSLSGVDVEDVRKFLDKEWAWVKELLAEHPAELAEVEAARAARLAELRAEVEAKVAA

Further lines, the binder ahead of its results:

Binder | apparent Kd (screen) [nM]
L52V (designed binder) MTLQELLREEALRRAEAEAFRYALELLAEKFPEQKEYLLDLAEEIESQIRSVSGVDVEDVRKFLDKEWAWVKELLAEHPAELAEVEAARAARLAELRAEVEAKVAA | 0.49
L26P (designed binder) MTLQELLREEALRRAEAEAFRYALEPLAEKFPEQKEYLLDLAEEIESQIRSLSGVDVEDVRKFLDKEWAWVKELLAEHPAELAEVEAARAARLAELRAEVEAKVAA | 13.8
I49L (designed binder) MTLQELLREEALRRAEAEAFRYALELLAEKFPEQKEYLLDLAEEIESQLRSLSGVDVEDVRKFLDKEWAWVKELLAEHPAELAEVEAARAARLAELRAEVEAKVAA | 0.539
E44Y (designed binder) MTLQELLREEALRRAEAEAFRYALELLAEKFPEQKEYLLDLAEYIESQIRSLSGVDVEDVRKFLDKEWAWVKELLAEHPAELAEVEAARAARLAELRAEVEAKVAA | 7.78
Q4E (designed binder) MTLEELLREEALRRAEAEAFRYALELLAEKFPEQKEYLLDLAEEIESQIRSLSGVDVEDVRKFLDKEWAWVKELLAEHPAELAEVEAARAARLAELRAEVEAKVAA | 0.79
L39G (designed binder) MTLQELLREEALRRAEAEAFRYALELLAEKFPEQKEYLGDLAEEIESQIRSLSGVDVEDVRKFLDKEWAWVKELLAEHPAELAEVEAARAARLAELRAEVEAKVAA | 3
L64Q (designed binder) MTLQELLREEALRRAEAEAFRYALELLAEKFPEQKEYLLDLAEEIESQIRSLSGVDVEDVRKFQDKEWAWVKELLAEHPAELAEVEAARAARLAELRAEVEAKVAA | 0.79
R13A (designed binder) MTLQELLREEALARAEAEAFRYALELLAEKFPEQKEYLLDLAEEIESQIRSLSGVDVEDVRKFLDKEWAWVKELLAEHPAELAEVEAARAARLAELRAEVEAKVAA | 0.368
L38D (designed binder) MTLQELLREEALRRAEAEAFRYALELLAEKFPEQKEYDLDLAEEIESQIRSLSGVDVEDVRKFLDKEWAWVKELLAEHPAELAEVEAARAARLAELRAEVEAKVAA | 11.4
A42E (designed binder) MTLQELLREEALRRAEAEAFRYALELLAEKFPEQKEYLLDLEEEIESQIRSLSGVDVEDVRKFLDKEWAWVKELLAEHPAELAEVEAARAARLAELRAEVEAKVAA | 0.956
A11Y (designed binder) MTLQELLREEYLRRAEAEAFRYALELLAEKFPEQKEYLLDLAEEIESQIRSLSGVDVEDVRKFLDKEWAWVKELLAEHPAELAEVEAARAARLAELRAEVEAKVAA | 0.49
